Assay results taken from the supplement of paper PMC12042874.
± gives the uncertainty stated by the source.

Assay: amyloid nucleation score (Sup35N fusion, yeast selection) (log enrichment); library NNK3; higher = more nucleation; inactive = no reads after selection
In short: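 Yeast lacking psi expressed peptides of 20 random codons fused to Sup35N, received 100 μM copper sulfate for 24 hours, and were then grown for 7 days at 30°C on medium lacking adenine and uracil. Illumina sequencing of input and output plasmid inserts provided the reads. Nucleation scores are DiMSum log enrichments of output over input, centred on the mode of non-aggregating sequences. Any sequence with under 100 input reads was excluded.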

Substance | amyloid nucleation score
QFLRGVMPAGMECAHATMRW | inactive
CMNIRPMATLTESSS | inactive
LNHRIWLTLFGSASRLVKFD | inactive
TGSFIIRISSSRTMLW | inactive
RVLVHYEVGFSENSRWGSVD | 0.481 ± 0.32
VAQRELWEEAIRCRYEH | inactive
HGIRYTCWRWECSNVGGSSS | inactive
LGDALAEVNQDHADSGYRVT | inactive
YCETLTRY | inactive
RMTMRRSSWQVEGITSLRIL | inactive
LSAAFYDMETIGWISGSWVN | inactive
SNDVKNVHP | inactive
VVVSERVREMRDYNVLLRCT | inactive
NQRSAILVGPSRNLQY | inactive
CSYAEKIVKGLAPVFLKVN | inactive
FMLWYSPKLFG | inactive
KINDCYGYYDLYWNWSIVRF | inactive
FVNCLCKRARYYSSGGLSSP | -0.512 ± 1.4
NGSSFCAKCVNVW | -0.418 ± 0.98
PTCGMDFVLQEYTKT | inactive
DNSVNKYKKTNVSVISARVR | inactive
QQVLVVQNKCEWGRHIA | inactive
KIFYYTWYSLSYTIQLYGLQ | inactive

Substance | amyloid nucleation score
FSYCSLWGKCVCDIFTNGQL | 2.81 ± 0.051
YYLVSWYVTTVLKSGLLSVR | inactive
MVVLRAVEQLGVRNNDYHS | inactive
VICKAPGRPGHLCCKCIAVH | inactive
PDNFNSRFNTRFKTHTRHPT | inactive
TLVSQMPCNM | inactive
LYNGGI | inactive
EYQLYCVYHLYANLDTVVRT | inactive
SYANIWVIHKLDGFMESSLL | inactive
YVWASIFFFTSYDEVVGRHV | 1.46 ± 0.13
FIVNSLPDLNALAHMSALLY | inactive
RLFFNPVVVVIWPGVRNVGV | 0.189 ± 0.66
HSLTENAKREIT | inactive
ARICVRAFKETCDYKLGCST | 0.052 ± 0.66
SFTRCWLNKREMKMYTFSAR | inactive
IILRTWVSTLQSNSAIEVTL | inactive
MDVKKRQSSGVALRFELLDG | inactive
ANHNLYRDDDREYFFMLCY | inactive
TVANTNRTALNLMLEMGLGL | inactive
AESIR | inactive
TPLITYHQWFLAICEWLDF | inactive
ILLSVSWGAR | 1.49 ± 0.13
CIRIYATFFKLRQSYNGTNG | 1.03 ± 0.14

Substance | amyloid nucleation score
VTSPFTPSI | -0.336 ± 0.63
LIYYCEHHARLSVLLDESSA | inactive
RWSNYMFDRQLY | -1.2 ± 1.8
RDDMGLESKQDGEP | inactive
FFWLMDAPHPRRHVDERQLI | inactive
RNYFMVLGRKYVFLFFWMMM | inactive
GSVGFIIKGWWSTE | 0.621 ± 0.26
NIISR | -0.184 ± 0.81
YLLSMSENMRLALIECVAV | inactive
MDIRERRRFFSNIRRVRYLK | inactive
VMWPIGSCDRE | inactive
RAGVKNG | inactive
FSVSASEKHFFSCVMLYCVS | 0.935 ± 0.1
RSKRSLCRGLPDMYAWKWSR | inactive
KGWLSSWVA | inactive
AKFSGVLKAYAVREATYCLG | inactive
SRSLWTLNIVFRHDCYTGKL | -0.05 ± 0.57
NIPVSYYVVNGLIAEMLFIS | 0.409 ± 0.27
MTFRFNVMLVCLWRATNCFL | inactive
TWLMFIFNSRYL | 1.51 ± 0.074
SSLGSETRFSYKRVHIENWR | -0.97 ± 0.9
VYIFLNEEPRVN | inactive
QGEHRHLCDLSLSEG | inactive

Substance | amyloid nucleation score
LSCHETCLVISGLCMLMMRL | inactive
NVDVYVGVPAQVGFVILFWT | -0.241 ± 0.61
SEIIHLGFYYDP | inactive
SLPGSKYKAFH | inactive
TIHSRMGIVLYFFAIDCVR | inactive
QCRYRRSST | inactive
TSSHLIGLFYDMLFRDTRSM | inactive
YDVPTSTDSLFATFVYYGRR | 1.44 ± 0.12
VILLSLAY | inactive
MMIIL | inactive
TVICISHTFSGHCLSSYEVW | inactive
QLGDMNAAALITATASRLVM | inactive
PRPSYWHRYSWSTTIVGGIS | inactive
LFVKMR | -0.219 ± 0.32
RIEAFLAP | 1.12 ± 0.18
LTFCVSMKCKIW | inactive
CVYFGRVNFTVGLLPSLNGF | 1.46 ± 0.14
RYVEWYLR | inactive
NTINVSPVLIDN | inactive
KVRRGQLKIRS | inactive
TTMRCEIKSLYWIISQCWLD | inactive
KQADVFIIMSRVIGNRGCLF | inactive
MFLWRDCNGTN | inactive

Substance | amyloid nucleation score
YDVFLIL | inactive
CCWRNLYSFLRKGSYSRCM | inactive
VAAMYGILMMLMELVWSDAR | inactive
HVAIPTGLSKSNSQLYS | inactive
GMVWFRFLKYAKC | -1.54 ± 2.4
SVDVYRSCEVGKCGGSYSTF | inactive
GDTAPNSSTISLTVFFPLFA | 0.697 ± 0.21
AAVSGDVTM | inactive
GMRSSLNIDAFGSGAELMHW | inactive
IHRNNNFFRRGYVWSYEEHH | inactive
LVIWYLQSLYSPGINCQDLR | inactive
YSGIAS | inactive
KDSQALHRFSNTILRYL | -0.406 ± 0.82
STAWALAIAAVDRNFDSGWW | 0.009 ± 1.1
RLSHTMCRVLCHWVMSYSVS | inactive
GTPYCICALSMHSTWDCN | 1.64 ± 0.081
FIVSPPSNGANVY | inactive
HKGAQPVKVKSGQSDTRPPS | inactive
LYSIWGRNRGHGMIGWDPLT | inactive
IFNNLTGFNNKGS | inactive
ILVAGTAV | inactive
RFNTDSQPAVMIVFRYNRLR | inactive
NSLSIVM | -0.523 ± 1.1

Substance | amyloid nucleation score
RMRSWMGCGRHCLWRHLEEL | inactive
FRPGLYSYMPSC | -0.451 ± 0.88
CTNKFVWKFVKFNNLCLLAY | inactive
SFRRLDGNRNLFSSCRVNGL | inactive
CRTQYKCRIAIWGYKFQPER | inactive
VGGIRLRIE | inactive
GLVYNNIWISLYFNGATVES | 2.08 ± 0.06
YSGFSYVRGLYGSGYVMAQP | -0.192 ± 0.52
RSRVSQFICRPGEVVNIAKC | inactive
DDCTTVF | inactive
LPSVDVRKTI | inactive
CLGYRFVWGVPFVKFDRIIW | inactive
FVFCLEGTGGVFDFGFGIGI | inactive
TGSNRSYIFFCWSRFNVMFG | -0.002 ± 0.9
TQNLNRRGKIRVVRDYIDYW | 0.554 ± 0.15
LYGGTAFLLSFCVAE | inactive
NCKLFFSFGM | 1.49 ± 0.094
LNQYLYFVRDMGDVMFCLYF | inactive
RNRLN | inactive
VGSNSDSVCCSPVVAGFQWT | 1.07 ± 0.1
KCLKCKTGLCTMQGEYNRSY | -0.475 ± 0.88
RFRHGDTGSTFRCWCFVS | inactive
EHLRMCNLATIKLILLNVHP | inactive

Substance | amyloid nucleation score
VHYWCGTQVVA | inactive
YLVAKDVSCNWVVTDGRLCH | inactive
SSYLGECVKRPDPPRISKTL | inactive
MLDFICAVFSVKNWVGICFV | inactive
RPRWFGPRSVVGMRASCTCW | inactive
WTDNSVFLTVVINDIRTSTS | 2.56 ± 0.062
SWSGCGLVPSSVSWGYGTCV | -0.47 ± 1.9
KRSHY | inactive
YWLDLYSKCLSSSVEISLGI | inactive
EERIT | inactive
HCKRYNVERKNFCDLHNQRY | inactive
PFWELYKDFSSICRLTQEGY | inactive
LCGPSDLAT | 0.096 ± 0.66
VKWWGAES | inactive
SVNIMRSLIWH | inactive
LADFRGQSLTDEGCMWTSSG | inactive
YGLTVCTTGLVFNNWMGSMV | 1.83 ± 0.11
GSYMYKKGLQF | inactive
GLKNV | -0.431 ± 0.8
RGRGAPCARFRNVYGMPFFY | inactive
RTWNVESFREFGCFKINLGP | inactive
SLKLRCLLGTSKVVMVDLFV | inactive
SAVKWC | inactive
